Source: patent US20210002649

Biological target: PD-1 Ligand (PD-L1) (UniProt Q9NZQ7)
Sequence (Q9NZQ7 19-290): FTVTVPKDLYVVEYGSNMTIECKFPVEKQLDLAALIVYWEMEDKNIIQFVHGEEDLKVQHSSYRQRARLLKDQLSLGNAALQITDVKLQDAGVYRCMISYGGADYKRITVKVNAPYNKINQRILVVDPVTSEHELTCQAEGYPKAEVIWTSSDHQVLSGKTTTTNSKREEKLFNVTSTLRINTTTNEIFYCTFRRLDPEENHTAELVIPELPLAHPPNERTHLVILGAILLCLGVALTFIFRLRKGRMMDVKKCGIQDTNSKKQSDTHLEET

## WW domain containing E3 ubiquitin protein ligase 1 (WWP1)
  PD-L1 K63-linked poly-ubiquitination (gel images): WWP1 triggers PD-L1 K63-linked poly-ubiquitination
  PD-L1 ubiquitination (gel images): WWP1 triggers PD-L1 ubiquitination in a catalytic dependent manner
